Drawing on patent publication US20240018268A1, this text covers fold signal over plasma background and sensitivity of the bridge assay for one molecule.

The target of this experiment is binding reagent of the similar bridge assay for the anti-CD19 (SJ25C1) CAR. In words: similar bridge assay for the anti-CD19 (SJ25C1) CAR.
Sequence of binding reagent of the similar bridge assay for the anti-CD19 (SJ25C1) CAR (scFv, as listed by the source limits assumed): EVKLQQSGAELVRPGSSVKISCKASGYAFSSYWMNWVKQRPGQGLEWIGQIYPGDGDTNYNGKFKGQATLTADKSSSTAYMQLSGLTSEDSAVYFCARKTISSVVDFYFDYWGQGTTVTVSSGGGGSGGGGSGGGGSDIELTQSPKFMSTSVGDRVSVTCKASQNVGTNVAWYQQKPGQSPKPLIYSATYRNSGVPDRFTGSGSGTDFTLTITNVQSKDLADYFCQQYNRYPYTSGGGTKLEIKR

B1: anti-idiotype antibody clone A-1 (anti-ID A-1) (antibody, mouse IgG1, kappa, V domains shown)
VH: QVQLQQPGSELVRPGGSVKLSCKASDYTFTSYWMHWVRQRPGQGLEWIGNIYPGSGGTNYDEKFKRKATLTVDTSSSTAYMQLRSLTSEDSAVYYCTREVTTVAYYYSMDYWGQGTSVTVSS
VL: DIQMTQTTSSLSASLGDRVTISCRASQDISNYLNWYQQKPDGTVKLLIYYTSRLHSGVPSRFSGSGSGTDYSLTISNLEQEDIATYFCQQGKTVPFTFGSGTKLEIKR
The molecule B1 returned a fold signal over plasma background greater than 5 fold and a sensitivity of the bridge assay of less than 100 ng/mL.
